Results: the supplement of paper PMC12042874
± gives the uncertainty stated by the source.

Test: amyloid nucleation score (Sup35N fusion, yeast selection) (log enrichment); library NNK1; higher = more nucleation; inactive = no reads after selection
How it was run: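 Three technical output replicates were used for random libraries. Psi-negative yeast expressing peptides of 20 random codons fused to Sup35N were induced with 100 μM copper sulfate for 24 hours and grown 7 days at 30°C on medium lacking adenine and uracil, and input and output plasmid inserts were Illumina-sequenced, excluding sequences with under 100 input reads. The nucleation score is the DiMSum log enrichment of output over input reads, centred on the mode score of non-aggregating sequences.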

SYHRSSYYGLVNRMAFLVF
amyloid nucleation score: 2.94 ± 0.11

SYIALIELFLFDSRRGHESV
amyloid nucleation score: 0.078 ± 0.35

SYIPSISAALYFVLVMRHWL
amyloid nucleation score: -0.627 ± 0.49

SYIQLMSMMIFAHMTANRRN
amyloid nucleation score: 1.9 ± 0.42

SYLDLRLAVCHCNGA
amyloid nucleation score: 5.38 ± 0.055

SYLFRSRRIRYFRFMHN
amyloid nucleation score: 3.17 ± 0.12

SYLTWDHLEVNLCTYSILGR
amyloid nucleation score: 0.45 ± 0.52

SYNGCRRFNRCDRVCRNSNT
amyloid nucleation score: 2.35 ± 0.095

SYQCGENYMFAYVNWSVGGN
amyloid nucleation score: 0.548 ± 0.84

SYRGWADADNLVLYPQNASV
amyloid nucleation score: 0.021 ± 0.97

SYSIASVFWSSMSNGLGR
amyloid nucleation score: 0.886 ± 0.2

SYSINLPLLPRCN
amyloid nucleation score: 1.02 ± 0.57

SYSMQRRKCTPAFCFA
amyloid nucleation score: -0.36 ± 0.54

SYWLWTVNTMSLVPFRASCR
amyloid nucleation score: 1.05 ± 0.36

TAGATI
amyloid nucleation score: 0.108 ± 0.25

TAIRWHFGNFVIDNIRNRGI
amyloid nucleation score: 1.25 ± 0.19

TALSFRYVYLI
amyloid nucleation score: -0.612 ± 0.61

TASIWNSRFFHNAGSLSGPF
amyloid nucleation score: -0.3 ± 1.1

TAWGHV
amyloid nucleation score: 0.411 ± 0.73

TCAGDNHDCDIYRNLLVAFS
amyloid nucleation score: 1.19 ± 0.68

TCCDRSRCSESSEGRRFQRT
amyloid nucleation score: 0.162 ± 0.3

TCLKFDSPMNCKGLSSLDMM
amyloid nucleation score: -0.496 ± 0.38

TCNGCGGHRMFWYK
amyloid nucleation score: 0.099 ± 0.55

TCNQS
amyloid nucleation score: inactive

TCWHVSILN
amyloid nucleation score: 0.136 ± 0.24

TDGIGYLGTWMWLWRGDGVR
amyloid nucleation score: 1.78 ± 0.53

TDRTQTYSTFASRGSDVTVT
amyloid nucleation score: 0.185 ± 0.35

TEALYWRLYMGQNKILSCRG
amyloid nucleation score: 0.366 ± 0.61

TEFHAKGPTWCELSYSFAIL
amyloid nucleation score: -0.195 ± 0.58

TEINIASPYWNNSRSGSDMD
amyloid nucleation score: 0.238 ± 0.42

TFIITSRFLYSDVAT
amyloid nucleation score: -1.33 ± 0.45

TFIMSQSWFMQWPRTMAAMT
amyloid nucleation score: -0.346 ± 0.45

TFLGGAPVGKIFTLIWLGRG
amyloid nucleation score: 0.52 ± 0.93

TFLITRMCYSTVQKKEVVFW
amyloid nucleation score: -0.189 ± 1.2

TFLSL
amyloid nucleation score: 0.068 ± 0.24

TFRCKSCDLLYHRLENWSDW
amyloid nucleation score: 2.66 ± 0.12

TFSDSLKNLQVMVHYSWVVG
amyloid nucleation score: 0.224 ± 1.4

TFSEFAVIDIRYIWGTLFVS
amyloid nucleation score: 0.762 ± 0.38

TFTFNACELCVPGLMCKEWN
amyloid nucleation score: 3.94 ± 0.096

TFVCAFRGY
amyloid nucleation score: 2.19 ± 0.098

TFYLEYLVLFGDCDADSFSW
amyloid nucleation score: -0.361 ± 0.63

TGATFMMRGVNLCEGSKSGN
amyloid nucleation score: -0.198 ± 0.5

TGDIISRSLSASIEQNFSSN
amyloid nucleation score: 0.443 ± 0.2

TGFTSLGGYLKVFNIICWIH
amyloid nucleation score: 3.39 ± 0.097

TGFVWWLFGCGWTLVDRMWF
amyloid nucleation score: -0.79 ± 0.69

TGICLWLPAVVDAEES
amyloid nucleation score: -0.34 ± 0.35

TGKGSSEHLRSNMNHRLYCA
amyloid nucleation score: 0.85 ± 0.43

TGLDNHNICNRDTR
amyloid nucleation score: -0.034 ± 0.62

TGLWPMEYSCQCDVVYPVSY
amyloid nucleation score: -0.051 ± 0.76

TGRSTSTG
amyloid nucleation score: inactive

TGWQCYSRANVVD
amyloid nucleation score: -0.98 ± 0.51

THFRMGKSFVICLGLASYPL
amyloid nucleation score: 0.374 ± 0.9

THGGCCQGFQPTQLQSLTHQ
amyloid nucleation score: 0.367 ± 0.6

THHSTSVSGVDQW
amyloid nucleation score: 0.289 ± 0.52

THNFEGLSVWDLKDLKCCS
amyloid nucleation score: 5.16 ± 0.087

THSIFFVQLRFPFMLTTS
amyloid nucleation score: -0.269 ± 0.78

TIAKST
amyloid nucleation score: -0.885 ± 0.86

TIDERDSAHKSSVFKGLKEI
amyloid nucleation score: -0.447 ± 0.33

TIIFYVFQCSMLRFIQMV
amyloid nucleation score: inactive

TIILSRLVEGVMQWAFMRAF
amyloid nucleation score: inactive

TINDKMITRFSLLCPAVSMI
amyloid nucleation score: 1.21 ± 0.84

TISCSSYDMWWCFTEAKSTM
amyloid nucleation score: inactive

TKCGMGYISGISSPASGQYG
amyloid nucleation score: 0.767 ± 1

TKFKIAYTCYFNMFHRRLCI
amyloid nucleation score: -0.374 ± 0.38

TKLSPFNIGLRCRYHNLALN
amyloid nucleation score: -1.52 ± 0.45

TKNSRTRLASSSLIWNW
amyloid nucleation score: -1.45 ± 0.76

TKSMEPSGR
amyloid nucleation score: 0.046 ± 0.52

TKTLL
amyloid nucleation score: 0.346 ± 0.34

TKVKCSLLSFWEKKFLLLRL
amyloid nucleation score: 1.82 ± 0.34

TLAIESGRFWINRLWYVEGE
amyloid nucleation score: -1.55 ± 1.3

TLCERGPPMMYCKC
amyloid nucleation score: -0.526 ± 0.45

TLFLLVSNVIAEFLFWIVCP
amyloid nucleation score: 0.212 ± 0.3

TLGFKIVDGIRGNMLVGPGI
amyloid nucleation score: -0.081 ± 0.73

TLILVTLMASIRNDTRTSWS
amyloid nucleation score: 0.979 ± 0.54

TLIRGIIISRWRRVRNIDE
amyloid nucleation score: -0.216 ± 0.3

TLLYICSRNTKFNGLMWLGL
amyloid nucleation score: 0.935 ± 0.21

TLMDQSLYIWGSN
amyloid nucleation score: -0.274 ± 0.63

TLNDYYCFMLCGAVNG
amyloid nucleation score: 0.071 ± 0.63

TLNLWSAWLLFPYDLAGIFY
amyloid nucleation score: -0.199 ± 0.33

TLQLCLSSCWYKGRRVGLEC
amyloid nucleation score: 0.483 ± 0.3

TLQLICYY
amyloid nucleation score: 3.29 ± 0.14

TLRLKWSWEADCDI
amyloid nucleation score: 2.49 ± 0.12

TLRWGNYKLLQIVYITVWRD
amyloid nucleation score: 0.541 ± 0.28

TLSFIRAYSVPHQVLRMESL
amyloid nucleation score: 0.87 ± 0.64

TLSLNGLNP
amyloid nucleation score: inactive
